Results as given in article doi:10.1101/2023.03.06.531428 (bioRxiv, 2023).

B1: untagged, recombinant TIMP-1 (natural protein)
chain: not shown
B2: ADAMTS-7-FLAG (enzyme)
chain: APGPAPGRATEGRAALDIVHPVRVDAGGSFLSYELWPRALRKRDVSVRRDAPAFYELQYRGRELRFNLTANQHLLAPGFVSETRRRGGLGRAHIRAHTPACHLLGEVQDPELEGGLAAISACDGLKGVFQLSNEDYFIEPLDSAPARPGHAQPHVVYKRQAPERLAQRGDSSAPSTCGVQVYPELESRRERWEQRQQWRRPRLRRLHQRSVSKEKWVETLVVADAKMVEYHGQPQVESYVLTIMNMVAGLFHDPSIGNPIHITIVRLVLLEDEEEDLKITHHADNTLKSFCKWQKSINMKGDAHPLHHDTAILLTRKDLCAAMNRPCETLGLSHVAGMCQPHRSCSINEDTGLPLAFTVAHELGHSFGIQHDGSGNDCEPVGKRPFIMSPQLLYDAAPLTWSRCSRQYITRFLDRGWGLCLDDPPAKDIIDFPSVPPGVLYDVSHQCRLQYGAYSAFCEDMDNVCHTLWCSVGTTCHSKLDAAVDGTRCGENKWCLSGECVPVGFRPEAVDGGWSGWSAWSICSRSCGMGVQSAERQCTQPTPKYKGRYCVGERKRFRLCNLQACPAGRPSFRHVQCSHFDAMLYKGQLHTWVPVVNDVNPCELHCRPANEYFAEKLRDAVVDGTPCYQVRASRDLCINGICKNVGCDFEIDSGAMEDRCGVCHGNGSTCHTVSGTFEEAEGLGYVDVGLIPAGAREIRIQEVAEAANFLALRSEDPEKYFLNGGWTIQWNGDYQVAGTTFTYARRGNWENLTSPGPTKEPVWIQLLFQESNPGVHYEYTIHREAGGHDEVPPPVFSWHYGPWTKCTVTCGRGVQRQNVYCLERQAGPVDEEHCDPLGRPDDQQRKCSEQPCPARWWAGEWQLCSSSCGPGGLSRRAVLCIRSVGLDEQSALEPPACEHLPRPPTETPCNRHVPCPATWAVGNWSQCSVTCGEGTQRRNVLCTNDTGVPCDEAQQPASEVTCSLPLCRWPLGTLGPEGSGSGSSSHELFNEADFIPHHLAPRPSPASSPKPGTMGNAIEEEAPELDLPGPVFVDDFYYDYNFINFHEDLSYGPSEEPDLDLAGTGDRTPPPHSHPAAPSTGSPVPATEPPAAKEEGVLGPWSPSPWPSQAGRSPPPPSEQTPGNPLINFLPEEDTPIGAPDLGLPSLSWPRVSTDGLQTPATPESQNDFPVGKDSQSQLPPPWRDRTNEVFKDDEEPKGRGAPHLPPRPSSTLPPLSPVGSTHSSPSPDVAELWTGGTVAWEPALEGGLGPVDSELWPTVGVASLLPPPIAPLPEMKVRDSSLEPGTPSFPTPGPGSWDLQTVAVWGTFLPTTLTGLGHMPEPALNPGPKGQPESLSPEVPLSSRLLSTPAWDSPANSHRVPETQPLAPSLAEAGPPADPLVVRNAGWQAGNWSECSTTCGLGAVWRPVRCSSGRDEDCAPAGRPQPARRCHLRPCATWHSGNWSKCSRSCGGGSSVRDVQCVDTRDLRPLRPFHCQPGPAKPPAHRPCGAQPCLSWYTSSWRECSEACGGGEQQRLVTCPEPGLCEEALRPNTTRPCNTHPCTQWVVGPWGQCSGPCGGGVQRRLVKCVNTQTGLPEEDSDQCGHEAWPESSRPCGTEDCEPVEPPRCERDRLSFGFCETLRLLGRCQLPTIRTQCCRSCSPPSHGAPSRGHQRVARR

Legend:
Experiment in all cases: AlphaScreen or HTRF
ADAMTS-7-FLAG = molecular target: B2
TIMP-1-HA [1] = molecular target: T1, TIMP-1-HA (human, UniProt P01033 24-207)
TIMP-1-HA [2] = molecular target: T1, TIMP-1-HA; remark: listed apart in the source

T1 sequence (P01033 24-207): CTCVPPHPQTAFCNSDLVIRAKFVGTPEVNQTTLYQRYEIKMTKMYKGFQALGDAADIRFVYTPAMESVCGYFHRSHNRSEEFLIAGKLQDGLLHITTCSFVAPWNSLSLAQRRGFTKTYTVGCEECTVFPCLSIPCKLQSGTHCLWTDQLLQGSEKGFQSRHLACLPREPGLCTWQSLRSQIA

Binder | FRET ratio (665/620) of ADAMTS-7-FLAG and TIMP-1-HA with 400 ng untagged TIMP-1 (ADAMTS-7-FLAG) | FRET ratio (665/620) of ADAMTS-7-FLAG and TIMP-1-HA with 800 ng untagged TIMP-1 (ADAMTS-7-FLAG) | FRET ratio (665/620) (TIMP-1-HA [1]) | FRET ratio (665/620) with 0 ng untagged TIMP-1 (TIMP-1-HA [2])
B1 | 4420 665/620 ratio | 3570 665/620 ratio |  | 
B2 |  |  | 5480 665/620 ratio | 4950 665/620 ratio
